Measurements published in the array DNA melting data of Ke et al..

experiment: melting temperature; melt of duplexes; details: sodium 0.0675 M; strand 1 µM

| Substance | Tm [°C] |
| --- | --- |
| CGACGTGCAAAATGTGCTG+CAGCACATAAAGCACGTCG ((((((((...((((((((+))))))))...)))))))) | 50.8 |
| CGACGTGCAAAATGTGCTG+CAGCACATACGGCACGTCG ((((((((...((((((((+))))))))...)))))))) | 48 |
| CGACGTGCAAAATGTGCTG+CAGCACATACTGCACGTCG (((((((((..((((((((+))))))))..))))))))) | 50.4 |
| CGACGTGCAAAATGTGCTG+CAGCACATAGGGCACGTCG ((((((((...((((((((+))))))))...)))))))) | 48.7 |
| CGACGTGCAAAATGTGCTG+CAGCACATAGTGCACGTCG (((((((((..((((((((+))))))))..))))))))) | 47 |
| CGACGTGCAAAATGTGCTG+CAGCACATATTGCACGTCG ((((((((((.((((((((+)))))))).)))))))))) | 54.7 |
| CGACGTGCAAAATGTGCTG+CAGCACATCATGCACGTCG (((((((((..((((((((+))))))))..))))))))) | 49.9 |
| CGACGTGCAAAATGTGCTG+CAGCACATCCCGCACGTCG ((((((((...((((((((+))))))))...)))))))) | 47.2 |
| CGACGTGCAAAATGTGCTG+CAGCACATCCGGCACGTCG ((((((((...((((((((+))))))))...)))))))) | 49.1 |
| CGACGTGCAAAATGTGCTG+CAGCACATCGAGCACGTCG ((((((((...((((((((+))))))))...)))))))) | 49.2 |
| CGACGTGCAAAATGTGCTG+CAGCACATCGCGCACGTCG ((((((((...((((((((+))))))))...)))))))) | 48.9 |
| CGACGTGCAAAATGTGCTG+CAGCACATGAAGCACGTCG ((((((((...((((((((+))))))))...)))))))) | 53.7 |
| CGACGTGCAAAATGTGCTG+CAGCACATGGGGCACGTCG ((((((((...((((((((+))))))))...)))))))) | 51.7 |
| CGACGTGCAAAATGTGCTG+CAGCACATGTCGCACGTCG ((((((((.(.((((((((+)))))))).).)))))))) | 53.3 |
| CGACGTGCAAAATGTGCTG+CAGCACATTATGCACGTCG (((((((((.(((((((((+))))))))).))))))))) | 55.1 |
| CGACGTGCAAAATGTGCTG+CAGCACATTCAGCACGTCG ((((((((..(((((((((+)))))))))..)))))))) | 52.1 |
| CGACGTGCAAAATGTGCTG+CAGCACATTTTGCACGTCG (((((((((((((((((((+))))))))))))))))))) | 62.4 |
| CGACGTGCAACATGTGCTG+CAGCACATAAAGCACGTCG ((((((((...((((((((+))))))))...)))))))) | 48.9 |

| Substance | Tm [°C] |
| --- | --- |
| CGACGTGCAACATGTGCTG+CAGCACATAACGCACGTCG ((((((((...((((((((+))))))))...)))))))) | 48.2 |
| CGACGTGCAACATGTGCTG+CAGCACATACTGCACGTCG (((((((((..((((((((+))))))))..))))))))) | 49.8 |
| CGACGTGCAACATGTGCTG+CAGCACATAGAGCACGTCG ((((((((...((((((((+))))))))...)))))))) | 48.9 |
| CGACGTGCAACATGTGCTG+CAGCACATATAGCACGTCG ((((((((.(.((((((((+)))))))).).)))))))) | 49.1 |
| CGACGTGCAACATGTGCTG+CAGCACATATTGCACGTCG ((((((((((.((((((((+)))))))).)))))))))) | 54.3 |
| CGACGTGCAACATGTGCTG+CAGCACATCAAGCACGTCG ((((((((...((((((((+))))))))...)))))))) | 47.1 |
| CGACGTGCAACATGTGCTG+CAGCACATCATGCACGTCG (((((((((..((((((((+))))))))..))))))))) | 49 |
| CGACGTGCAACATGTGCTG+CAGCACATCGCGCACGTCG ((((((((...((((((((+))))))))...)))))))) | 47.7 |
| CGACGTGCAACATGTGCTG+CAGCACATCGTGCACGTCG (((((((((..((((((((+))))))))..))))))))) | 47.9 |
| CGACGTGCAACATGTGCTG+CAGCACATCTGGCACGTCG ((((((((.(.((((((((+)))))))).).)))))))) | 48.9 |
| CGACGTGCAACATGTGCTG+CAGCACATCTTGCACGTCG ((((((((((.((((((((+)))))))).)))))))))) | 52.5 |
| CGACGTGCAACATGTGCTG+CAGCACATGACGCACGTCG ((((((((..(((((((((+)))))))))..)))))))) | 50.9 |
| CGACGTGCAACATGTGCTG+CAGCACATGCGGCACGTCG ((((((((..(((((((((+)))))))))..)))))))) | 53.5 |
| CGACGTGCAACATGTGCTG+CAGCACATGGGGCACGTCG ((((((((..(((((((((+)))))))))..)))))))) | 58.9 |
| CGACGTGCAACATGTGCTG+CAGCACATGTCGCACGTCG ((((((((.((((((((((+)))))))))).)))))))) | 57.8 |
| CGACGTGCAACATGTGCTG+CAGCACATGTTGCACGTCG (((((((((((((((((((+))))))))))))))))))) | 64.5 |
| CGACGTGCAACATGTGCTG+CAGCACATTAAGCACGTCG ((((((((...((((((((+))))))))...)))))))) | 49.2 |
| CGACGTGCAACATGTGCTG+CAGCACATTAGGCACGTCG ((((((((...((((((((+))))))))...)))))))) | 48.9 |
